Test results: paper PMC6566460

Target: recombinant histone H2B (UniProt P06899)
Assay: SEC + other: RP-HPLC; synthetic H2A.Z and recombinant H2B unfolded together (7 M Gdn·HCl, 20 mM mercaptoethanol, 20 mM Tris·HCl, pH 7.5; 2 h on ice), dialysed three times against refolding buffer (2.0 M NaCl, 2.0 mM mercaptoethanol, 10 mM Tris·HCl, pH 7.5) at 4 °C for 3 h; SEC of the reconstituted mixture, then RP-HPLC at 280 nm; ratio from peak areas and the number of tyrosines

With “synthetic histone H2A.Z (from UniProt P0C0S5 1-128) (natural protein)” the stoichiometry N was 1.
